Data from patent US20040175758.

Biological target: T1, Q2L, synthetic peptide Ac-LATLSHCIELMVKR-NH2 (L-amino acids)
T1 chain: LATLSHCIELMVKR

B1: Recombinant FLAG-tagged human GPBP (expressed in yeast, FLAG-affinity purified) (protein)
chain: MSDNQSWNSSGSEEDPETESGPPVERCGVLSKWTNYIHGWQDRWVVLKNNALSYYKSEDETEYGCRGSICLSKAVITPHDFDECRFDISVNDSVWYLRAQDPDHRQQWIDAIEQHKTESGYGSESSLRRHGSMVSLVSGASGYSATSTSSFKKGHSLREKLAEMETFRDILCRQVDTLQKYFDACADAVSKDELQRDKVVEDDEDDFPTTRSDGDFLHSTNGNKEKLFPHVTPKGINGIDFKGEAITFKATTAGILATLSHCIELMVKREDSWQKRLDKETEKKRRTEEAYKNAMTELKKKSHFGGPDYEEGPNSLINEEEFFDAVEAALDRQDKIEEQSQSEKVRLHWPTSLPSGDAFSSVGTHRFVQKPYSRSSSMSSIDLVSASDDVHRFSSQVEEMVQNHMTYSLQDVGGDANWQLVVEEGEMKVYRREVEENGIVLDPLKATHAVKGVTGHEVCNYFWNVDVRNDWETTIENFHVVETLADNAIIIYQTHKRVWPASQRDVLYLSVIRKIPALTENDPETWIVCNFSVDHDSAPLNNRCVRAKINVAMICQTLVSPPEGNQEISRDNILCKITYVANVNPGGWAPASVLRAVAKREYPKFLKRFTSYVQEKTAGKPILF
GPBP autophosphorylation in vitro: efficiently inhibited GPBP autophosphorylation
